We go through 9 molecules from US20230012428A1 (JIANGSU HENGRUI MEDICINE, published 2023).

Assay [1] deals with T1, CD47 extracellular domain and human IgG1Fc fusion protein (CD47-ECD-Fc) (human).
T1 construct: also called CD47-Fc
Description: blocking ELISA, CD47-Fc coated, competitor biotin-labeled SIRPα-his. (An ELISA detects its analyte on a solid surface through an enzyme-linked reagent.)

The target of assay [2] is T2, PD-L1-Fc (prepared in-house) (human, UniProt Q9NZQ7 19-238, limits assumed).
T2 construct: Prepared in-house; also called human PD-L1-Fc; not shown: Fc
The experiment in a line: blocking ELISA, PD-L1-Fc coated, competitor biotin-labeled PD-1.

For assay [3], the target named is T2, PD-L1-Fc (prepared in-house). The experiment in a line: blocking ELISA, PD-L1-Fc coated, competitor biotin-labeled B7-1.
The target in assay [4] is T3, hPD-L1-His (human, UniProt Q9NZQ7 19-239).
T3 construct: Bought; also called Human PD-L1-his; Human PD-L1; not shown: His tag
The experiment in a line: SPR (Biacore T200), binder captured on Protein A chip, antigen in flow. On the technique in general: In SPR one partner is held on a chip, and binding of the other changes the refractive index at the surface.

Assay [5] has as its target T4, Cyno PD-L1-His (cyno, UniProt G7PSE7 19-239).
T4 construct: Bought; not shown: His tag
Described as above.

Assay [6] deals with T5, mPD-L1 (mouse, UniProt Q9EP73 19-238).
T5 construct: Bought; also called Mouse PD-L1-his; Mouse PD-L1
The assay is described as above.

For assay [7], the target named is T6, natural CD47 on the surface of human red blood cells (human, UniProt Q08722 19-323).
T6 construct: whole, on cells; also called CD47 on the surface of red blood cells
Description: flow cytometry on human red blood cells, 10 µg/ml, Alexa 488 goat anti-human IgG secondary antibody, geometric mean. On the technique in general: In flow cytometry, cells or beads pass a laser one at a time.

Assay [8] has as its target T3, hPD-L1-His. Description: ELISA, PD-L1-his coated on plate.
The target of assay [9] is T4, Cyno PD-L1-His. Description: ELISA, PD-L1-his coated on plate.
Assay [10] deals with T5, mPD-L1. The experiment in a line: ELISA, PD-L1-his coated on plate.
The target of assay [11] is T7, Human CD47-his (CD47-ECD-His) (human, UniProt Q08722 19-139, limits assumed).
T7 construct: also called hCD47; free human CD47 protein
Description: SPR (Biacore T200), binder captured on Protein A chip, antigen in flow.

The target of assay [12] is T8, Cyno CD47-his (cyno, UniProt A0A2K5X523 19-139).
T8 construct: extracellular domain; not shown: His tag
Described as above.

The target of assay [13] is T7, Human CD47-his (CD47-ECD-His). The experiment in a line: ELISA, CD47-his coated on plate.
Assay [14] concerns the target T8, Cyno CD47-his. The experiment in a line: ELISA, CD47-his coated on plate.
Assay [15] deals with T7, Human CD47-his (CD47-ECD-His). The experiment in a line: ELISA, CD47-his coated on plate. The source holds these as a separate data set.
Assay [16] addresses T8, Cyno CD47-his. Description: ELISA, CD47-his coated on plate. The source holds these as a separate data set.

Read-outs that look alike come from different tables or passages of the source.

B1: Anti-CD47 antibody hu5F9 (antibody, human IgG4 S228P, kappa, V domains shown)
VH: QVQLVQSGAEVKKPGASVKVSCKASGYTFTNYNMHWVRQAPGQRLEWMGTIYPGNDDTSYNQKFKDRVTITADTSASTAYMELSSLRSEDTAVYYCARGGYRAMDYWGQGTLVTVSS
VL: DIVMTQSPLSLPVTPGEPASISCRSSQSIVYSNGNTYLGWYLQKPGQSPQLLIYKVSNRFSGVPDRFSGSGSGTDFTLKISRVEAEDVGVYYCFQGSHVPYTFGQGTKLEIKR
notes: Control antibody
B1 gave an IC50 in assay [1] of 0.263 µg/mL.

B2: Anti PD-L1 IgG4 antibody h1830 (antibody, V domains shown)
VH: QVQLQESGPGLVKPSQTLSLTCTVSGGSISDGSAYWSWIRQHPGKGLEYIGFISRAGSTYNTPSLKGRVTISRDTSKNQFSLKLSSVTAADTAVYYCARSGGWLAPFDYWGRGTLVTVSS
VL: DIVMTQSPDSLAVSLGERATINCKSSQSLFYHSNQKHSLAWYQQKPGQPPKLLIYGASTRESGVPDRFSGSGSGTDFTLTISSLQAEDVAVYYCQQYYGYPYTFGGGTKVEIKR
notes: also called PD-L1 monoclonal antibody h1830
Turning to B2, the IC50 in assay [2] amounted to 0.035 µg/mL; in assay [3] it was 0.0752 µg/mL. The Kd with hPD-L1-His [4] turned out to be 0.466 nM; with Cyno PD-L1-His [5], 0.498 nM; with mPD-L1 [6] it was 97.5 nM. In [7], the binding result is reported as “no binding (tested: 10 µg/ml)”. Moreover, the EC50 amounted to 0.131 µg/mL with hPD-L1-His [8], 0.23 µg/mL with Cyno PD-L1-His [9] and 0.0289 µg/mL with mPD-L1 [10].

B3: PD-L1 antibody h1831 (antibody, human IgG4 S228P, kappa, V domains shown)
VH: QVQLVQSGAEVKKPGASVKVSCKASGYTFTSYWMHWVRQAPGQGLEWMGRITPSSGFAMYNEKFKNRVTMTRDTSTSTVYMELSSLRSEDTAVYYCARGGSSYDYFDYWGQGTTVTVSS
VL: DIVLTQSPASLAVSPGQRATITCRASESVSIHGTHLMHWYQQKPGQPPKLLIYAASNLESGVPARFSGSGSGTDFTLTINPVEAEDTANYYCQQSFEDPLTFGQGTKLEIKR
As for B3, the IC50 in [2] was found to be 0.0266 µg/mL; in assay [3], 0.0494 µg/mL. In addition, the results for the Kd with hPD-L1-His [4] and in the assay with Cyno PD-L1-His [5] were 0.0806 nM and 0.0919 nM, respectively. Besides, the binding result with mPD-L1 [6] is “no binding”; in assay [7], “no binding (tested: 10 µg/ml)”. The EC50 came to 0.129 µg/mL with hPD-L1-His [8] and 0.222 µg/mL with Cyno PD-L1-His [9].

B4: HRP00052 (antibody, V domains shown)
VH: QVQLVQSGAEVKKPGASVKVSCKASGYTFTSYWMHWVRQAPGQGLEWMGRIGPNSGFTSYNEKFKNRVTMTRDTSTSTVYMELSSLRSEDTAVYYCARGGSSYDYFDYWGQGTTVTVSS
VL: DIVLTQSPASLAVSPGQRATITCRASESVSIHGTHLMHWYQQKPGQPPKLLIYAASNLESGVPARFSGSGSGTDFTLTINPVEAEDTANYYCQQSFEDPLTFGQGTKLEIKR
Consider B4, for which the IC50 in assay [2] is 0.032 µg/mL; in assay [3] it was 0.0307 µg/mL. The Kd worked out at 0.144 nM in the assay with hPD-L1-His [4] and 0.151 nM with Cyno PD-L1-His [5]. Besides, the values for the EC50 with hPD-L1-His [8] and with Cyno PD-L1-His [9] were 0.163 µg/mL and 0.196 µg/mL, respectively.

B5: Anti-CD47 antibody Hu167-IgG4 AA (antibody, V domains shown)
VH: QVQLVQSGAEVKKPGASVKVSCKASGYTFTSYWMHWVRQAPGQGLEWMGNIDPSDSETHYNQKFKDRVTMTRDTSISTAYMELSRLRSDDTAVYYCARWGYLGRSAMDYWGQGTTVTVSS
VL: DVQITQSPSSLSASVGDRVTITCRTSKSISKFLAWYQQKPGKAPKLLIYSGSTLQSGVPSRFSGSGSGTDFTLTISSLQPEDFATYYCQQHNEYPWTFGGGTKVEIKR
notes: Control antibody, prepared according to WO2018095428A1; also called Hul67 IgG4AA
As to B5, the values for the Kd (in assay [11]; in the assay with Cyno CD47-his [12]) were 0.653 nM and 1.09 nM, respectively. For the same molecule, the results for the EC50 (in assay [13]; in the assay with Cyno CD47-his [14]) were 0.0703 µg/mL and 0.0317 µg/mL, respectively.

B6: h1831-19-S58 (bispecific antibody, human IgG4 S228P, kappa)
heavy: not shown
light: DIVLTQSPASLAVSPGQRATITCRASESVSIHGTHLMHWYQQKPGQPPKLLIYAASNLESGVPARFSGSGSGTDFTLTINPVEAEDTANYYCQQSFEDPLTFGQGTKLEIKRTVAAPSVFIFPPSDEQLKSGTASVVCLLNNFYPREAKVQWKVDNALQSGNSQESVTEQDSKDSTYSLSSTLTLSKADYEKHKVYACEVTHQGLSSPVTKSFNRGEC
notes: Anti-PD-L1 IgG4 antibody h1831 with SIRPγ variant S58, GS19 linker; also called PD-L1-CD47 bifunctional fusion protein
Turning to B6, the IC50 in assay [2] came to 0.122 µg/mL; in [3], 0.16 µg/mL. For the same molecule, the Kd is 1.77 nM in assay [11], 0.0825 nM with hPD-L1-His [4], 0.0891 nM with Cyno PD-L1-His [5] and 1.94 nM with Cyno CD47-his [12]. Besides, the binding result with mPD-L1 [6] is “no binding”. For the same molecule, the EC50 in assay [13] stood at 0.0469 µg/mL; with Cyno CD47-his [14], 0.06 µg/mL; with hPD-L1-His [8], 0.0947 µg/mL; with Cyno PD-L1-His [9], 0.237 µg/mL.

B7: h1831-19-S37 (bispecific antibody, human IgG4 S228P, kappa)
heavy: not shown
light: DIVLTQSPASLAVSPGQRATITCRASESVSIHGTHLMHWYQQKPGQPPKLLIYAASNLESGVPARFSGSGSGTDFTLTINPVEAEDTANYYCQQSFEDPLTFGQGTKLEIKRTVAAPSVFIFPPSDEQLKSGTASVVCLLNNFYPREAKVQWKVDNALQSGNSQESVTEQDSKDSTYSLSSTLTLSKADYEKHKVYACEVTHQGLSSPVTKSFNRGEC
notes: h1831 IgG4 with SIRPγ variant S37, GS19 linker; also called PD-L1-CD47 bifunctional fusion protein
For the molecule B7, the Kd is 1.16 nM in assay [11], 0.0529 nM with hPD-L1-His [4], 0.0471 nM with Cyno PD-L1-His [5] and 1.39 nM with Cyno CD47-his [12]. In addition, the binding result with mPD-L1 [6] was “no binding”.

B8: h1831K-19-S37 (bispecific antibody, human IgG4 S228P, kappa)
heavy: not shown
light: DIVLTQSPASLAVSPGQRATITCRASESVSIHGTHLMHWYQQKPGQPPKLLIYAASKLESGVPARFSGSGSGTDFTLTINPVEAEDTANYYCQQSFEDPLTFGQGTKLEIKRTVAAPSVFIFPPSDEQLKSGTASVVCLLNNFYPREAKVQWKVDNALQSGNSQESVTEQDSKDSTYSLSSTLTLSKADYEKHKVYACEVTHQGLSSPVTKSFNRGEC
notes: h1831K IgG4 (h1831 with light chain N53K) with SIRPγ variant S37, GS19 linker; also called h831K-19-S37; PD-L1-CD47 bifunctional fusion protein
Turning to B8, the IC50 in [1] was 0.252 µg/mL. The Kd in assay [11] was determined as 1.25 nM; in the assay with hPD-L1-His [4], 0.0563 nM; with Cyno PD-L1-His [5], 0.0493 nM; with Cyno CD47-his [12], 1.48 nM. Further, the binding result in the assay with mPD-L1 [6] is “no binding”. The EC50 in assay [15] amounted to 0.0609 µg/mL; with Cyno CD47-his [16], 0.033 µg/mL; with hPD-L1-His [8], 0.046 µg/mL; with Cyno PD-L1-His [9], 0.0972 µg/mL.

B9: h1831-19-S79 (bispecific antibody, human IgG4 S228P, kappa)
heavy: not shown
light: DIVLTQSPASLAVSPGQRATITCRASESVSIHGTHLMHWYQQKPGQPPKLLIYAASNLESGVPARFSGSGSGTDFTLTINPVEAEDTANYYCQQSFEDPLTFGQGTKLEIKRTVAAPSVFIFPPSDEQLKSGTASVVCLLNNFYPREAKVQWKVDNALQSGNSQESVTEQDSKDSTYSLSSTLTLSKADYEKHKVYACEVTHQGLSSPVTKSFNRGEC
notes: h1831 IgG4 with SIRPγ variant S79, GS19 linker; also called PD-L1-CD47 bifunctional fusion protein
For B9, the figures for the IC50 in assay [2] and in assay [3] were 0.0723 µg/mL and 0.113 µg/mL, respectively. For the same molecule, the Kd stood at 3.83 nM in assay [11], 0.0874 nM in the assay with hPD-L1-His [4], 0.121 nM with Cyno PD-L1-His [5] and 4.63 nM with Cyno CD47-his [12]. In addition, in the assay with mPD-L1 [6], the binding result is on record as “no binding”. Further, the results for the EC50 with hPD-L1-His [8] and with Cyno PD-L1-His [9] were 0.0976 µg/mL and 0.214 µg/mL, respectively.

Usually IC50 stands for the concentration that inhibits the measured activity by half. Higher therefore signals a need for much substance. One may read the Kd as the free concentration of one partner at which half of the binding sites on the other are occupied at equilibrium, for simple one-to-one binding. The low end stands for a tighter complex, the high end for a looser complex. For orientation: EC50 means the concentration at which the effect is half-maximal. Read a low EC50 as higher potency in that assay.
